The values that follow come from EP4062934A1 (CentricsBio, Inc., dated 2022).

For orientation: EC50 means the concentration at which the effect is half-maximal. Low readings indicate an effect from little substance, high ones a need for much substance.

In this test the target is T1, CD300c antigen (UniProt Q08708 21-183, limits assumed).
T1 construct: also called CD300c protein
T1 sequence (looked up): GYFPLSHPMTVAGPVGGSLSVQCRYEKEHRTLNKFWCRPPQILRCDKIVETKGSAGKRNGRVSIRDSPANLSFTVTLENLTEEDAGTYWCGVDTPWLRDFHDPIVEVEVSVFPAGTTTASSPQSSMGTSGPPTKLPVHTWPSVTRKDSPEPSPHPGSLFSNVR
The experiment in a line: binding ELISA, antigen coated, anti-Fc HRP detection. On the technique in general: In an ELISA, binding on a coated surface is turned into a signal by an enzyme label.

B1: anti-CD300c monoclonal antibody CL8 (antibody, V domains shown)
VH: EVQLLESGGGLVQPGGSLRLSCAASGFTFSSYAMSWVRQAPGKGLEWVSAISGSGGSTYYADSVKGRFTISRNNSKNTLYLQMNSLRAEDTAVYYCARSGRYADLTSGGQGTLVTVSS
VL: QSVLTQPPSASGTPGQRVTISCSGSNSNIGNNYVSWYQQLPDTPPKLLIYDNNKRPSGVPDRFSGSKSGTSASLAISGLRSEDEADYYCSSYTSSSTVMFGGGTKLTVL
B1 showed an EC50 of 49.7 µg/mL.
